Data taken from PMC7308587.

Assays:
[1] = target: PpNAGK, recombinant mature N-acetylglutamate kinase (301 residues without cTP) fused to a His-tag (Pinus pinaster (maritime pine))
[2] = target: PpPIIa, recombinant mature protein (without the chloroplast transit peptide) (Pinus pinaster (maritime pine)); assay: SEC; ENrich SEC 650 10 x 300 column (FPLC), 250 uL of protein at 0.6 ug/uL in 25 mM Tris-HCl pH 7.5, 150 mM NaCl, 10% glycerol, room temperature, 0.75 mL/min; calibrated with protein standards; fractions checked by western blot
[3] = target: PpPIIb, recombinant mature protein (without the chloroplast transit peptide) (Pinus pinaster (maritime pine)); assay: as above

Substance | PpNAGK enzyme activity (N-acetylglutamylhydroxamate assay) with increasing amounts of PpPIIa mixed with 0.65 ug PpNAGK [1] [fold] | stoichiometry N [2] | PpNAGK enzyme activity (N-acetylglutamylhydroxamate assay) with increasing amounts of PpPIIb mixed with 0.65 ug PpNAGK [1] [fold] | stoichiometry N [3]
PpPIIa, recombinant mature protein (without the chloroplast transit peptide) (natural protein) | 5 | 3 |  | 
PpPIIb, recombinant mature protein (without the chloroplast transit peptide) (natural protein) |  |  | 5 | 3
